Substitutions are numbered along the chain they refer to.
B1: Cross311 (antibody, human IgG1, kappa, V domains shown)
VH: EVQLLESGGGLVQPGGSLKLSCAASGFTFNTYAMNWVRQAPGKGLEWVARIRSKYNNYATYYADSVKDRFTISRDDSKNTAYLQMNNLKTEDTAVYYCVRHGNFGNSEVSWFAYWGQGTLVTVSS
VL: ELVVTQEPSLTVSPGGTVTLTCRSSTGAVTTSNYANWVQQKPGQAPRGLIGGTNKRAPGTPARFSGSLLGGKAALTLSGVQPEDEAEYYCALWYSNLWVFGGGTKLTVLR
B2: Cross312 (antibody, human IgG1, kappa, V domains shown)
VH: B1 VH with E108Y, V109H
VL: B1 VL
B3: Cross313 (antibody, human IgG1, kappa, V domains shown)
VH: B1 VH with E108Y, V109Q
VL: B1 VL
B4: Cross314 (antibody, human IgG1, kappa, V domains shown)
VH: B1 VH with E108Y, V109S
VL: B1 VL
B5: Cross316 (antibody, human IgG1, kappa, V domains shown)
VH: B1 VH with E108Y, A113L
VL: B1 VL
B6: Cross303×PDL1 (bispecific antibody, human IgG1, kappa, L234A L235A)
scFv: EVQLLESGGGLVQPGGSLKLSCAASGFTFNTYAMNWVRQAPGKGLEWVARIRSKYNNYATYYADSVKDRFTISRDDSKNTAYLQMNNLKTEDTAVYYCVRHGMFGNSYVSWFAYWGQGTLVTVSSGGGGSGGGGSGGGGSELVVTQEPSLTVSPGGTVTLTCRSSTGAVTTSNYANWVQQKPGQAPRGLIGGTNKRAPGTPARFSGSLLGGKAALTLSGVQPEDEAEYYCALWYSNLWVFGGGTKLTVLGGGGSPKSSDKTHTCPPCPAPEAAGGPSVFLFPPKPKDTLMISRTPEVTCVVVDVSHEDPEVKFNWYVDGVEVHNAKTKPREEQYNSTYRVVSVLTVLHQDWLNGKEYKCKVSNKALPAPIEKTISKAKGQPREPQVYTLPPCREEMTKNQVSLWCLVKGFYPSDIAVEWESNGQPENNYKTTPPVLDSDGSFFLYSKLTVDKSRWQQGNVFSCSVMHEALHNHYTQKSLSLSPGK
heavy: QVQLVQSGAEVKKPGASVKVSCKASGYSFTGYYMHWVRQAPGQGLEWIGRINPYNGATTYSQNFKDRATMTVDTSISTAYMELSRLRSDDTAVYYCVPTGMGYFLMDYWGQGTLVTVSSASTKGPSVFPLAPSSKSTSGGTAALGCLVKDYFPEPVTVSWNSGALTSGVHTFPAVLQSSGLYSLSSVVTVPSSSLGTQTYICNVNHKPSNTKVDKKVEPKSCDKTHTCPPCPAPEAAGGPSVFLFPPKPKDTLMISRTPEVTCVVVDVSHEDPEVKFNWYVDGVEVHNAKTKPREEQYNSTYRVVSVLTVLHQDWLNGKEYKCKVSNKALPAPIEKTISKAKGQPREPQVCTLPPSREEMTKNQVSLSCAVKGFYPSDIAVEWESNGQPENNYKTTPPVLDSDGSFFLVSKLTVDKSRWQQGNVFSCSVMHEALHNHYTQKSLSLSPGK
light: DIQLTQSPSFLSASVGDRVTITCKASQDVGSAVVWYQQKPGKAPKLLIYWASTRHTGVPSRFSGSGSGTEFTLTISSLQPEDFATYFCQQFTSYPTFGQGTKLEIKRTVAAPSVFIFPPSDEQLKSGTASVVCLLNNFYPREAKVQWKVDNALQSGNSQESVTEQDSKDSTYSLSSTLTLSKADYEKHKVYACEVTHQGLSSPVTKSFNRGEC
B7: Cross307×PDL1 (bispecific antibody, human IgG1, kappa, L234A L235A)
scFv: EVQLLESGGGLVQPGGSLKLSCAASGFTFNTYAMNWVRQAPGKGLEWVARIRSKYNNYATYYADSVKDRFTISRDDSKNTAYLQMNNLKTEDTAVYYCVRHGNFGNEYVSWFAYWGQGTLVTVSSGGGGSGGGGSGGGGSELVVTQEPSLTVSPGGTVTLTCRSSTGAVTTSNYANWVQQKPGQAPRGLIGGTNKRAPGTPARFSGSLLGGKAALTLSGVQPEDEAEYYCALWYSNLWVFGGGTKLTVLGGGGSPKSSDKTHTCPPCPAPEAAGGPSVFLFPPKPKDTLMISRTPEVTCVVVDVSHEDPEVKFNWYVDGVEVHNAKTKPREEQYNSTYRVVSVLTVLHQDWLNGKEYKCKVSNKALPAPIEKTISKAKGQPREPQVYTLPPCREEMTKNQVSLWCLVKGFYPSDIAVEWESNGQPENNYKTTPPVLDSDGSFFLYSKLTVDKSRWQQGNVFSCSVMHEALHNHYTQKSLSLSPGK
heavy: B6 heavy
light: B6 light
B8: Cross308×PDL1 (bispecific antibody, human IgG1, kappa, L234A L235A)
scFv: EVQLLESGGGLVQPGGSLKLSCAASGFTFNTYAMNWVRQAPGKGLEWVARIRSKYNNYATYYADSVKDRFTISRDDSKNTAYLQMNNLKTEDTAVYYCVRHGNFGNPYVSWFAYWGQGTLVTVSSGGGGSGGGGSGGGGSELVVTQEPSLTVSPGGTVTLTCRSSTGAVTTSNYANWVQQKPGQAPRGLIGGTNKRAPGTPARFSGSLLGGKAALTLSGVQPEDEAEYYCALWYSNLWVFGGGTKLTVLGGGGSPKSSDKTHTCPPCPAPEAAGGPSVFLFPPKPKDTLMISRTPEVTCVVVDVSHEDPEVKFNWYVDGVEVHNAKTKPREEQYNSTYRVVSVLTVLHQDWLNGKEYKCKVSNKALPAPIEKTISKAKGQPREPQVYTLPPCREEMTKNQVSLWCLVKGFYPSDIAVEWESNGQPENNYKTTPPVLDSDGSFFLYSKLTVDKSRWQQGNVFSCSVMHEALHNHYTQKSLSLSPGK
heavy: B6 heavy
light: B6 light
B9: Cross311×PDL1 (bispecific antibody, human IgG1, kappa, L234A L235A)
scFv: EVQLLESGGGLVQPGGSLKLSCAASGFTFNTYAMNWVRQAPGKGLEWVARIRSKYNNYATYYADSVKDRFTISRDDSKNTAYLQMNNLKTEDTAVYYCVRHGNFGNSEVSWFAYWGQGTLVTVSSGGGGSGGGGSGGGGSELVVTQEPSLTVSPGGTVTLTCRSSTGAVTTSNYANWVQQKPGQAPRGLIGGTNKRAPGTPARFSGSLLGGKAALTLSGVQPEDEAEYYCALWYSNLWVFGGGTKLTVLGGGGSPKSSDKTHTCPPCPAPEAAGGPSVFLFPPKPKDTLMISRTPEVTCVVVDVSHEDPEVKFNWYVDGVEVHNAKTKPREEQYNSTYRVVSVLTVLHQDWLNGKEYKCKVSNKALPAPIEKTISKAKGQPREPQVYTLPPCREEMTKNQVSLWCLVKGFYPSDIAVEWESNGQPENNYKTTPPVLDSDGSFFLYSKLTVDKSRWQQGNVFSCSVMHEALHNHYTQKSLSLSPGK
heavy: B6 heavy
light: B6 light
B10: Cross312×PDL1 (bispecific antibody, human IgG1, kappa, L234A L235A)
scFv: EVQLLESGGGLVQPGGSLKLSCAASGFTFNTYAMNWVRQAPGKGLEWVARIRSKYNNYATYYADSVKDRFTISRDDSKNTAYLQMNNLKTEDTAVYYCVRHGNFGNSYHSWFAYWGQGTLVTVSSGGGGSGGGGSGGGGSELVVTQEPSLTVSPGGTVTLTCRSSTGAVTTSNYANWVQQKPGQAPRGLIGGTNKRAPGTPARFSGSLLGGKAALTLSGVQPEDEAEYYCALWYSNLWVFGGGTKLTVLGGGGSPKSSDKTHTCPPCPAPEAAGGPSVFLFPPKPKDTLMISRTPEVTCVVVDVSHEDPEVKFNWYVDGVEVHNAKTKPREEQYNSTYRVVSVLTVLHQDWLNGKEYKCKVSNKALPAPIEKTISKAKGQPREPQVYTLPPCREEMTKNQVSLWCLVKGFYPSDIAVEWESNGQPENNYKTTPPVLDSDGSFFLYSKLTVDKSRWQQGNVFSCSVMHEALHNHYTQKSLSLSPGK
heavy: B6 heavy
light: B6 light
B11: Cross314×PDL1 (bispecific antibody, human IgG1, kappa, L234A L235A)
scFv: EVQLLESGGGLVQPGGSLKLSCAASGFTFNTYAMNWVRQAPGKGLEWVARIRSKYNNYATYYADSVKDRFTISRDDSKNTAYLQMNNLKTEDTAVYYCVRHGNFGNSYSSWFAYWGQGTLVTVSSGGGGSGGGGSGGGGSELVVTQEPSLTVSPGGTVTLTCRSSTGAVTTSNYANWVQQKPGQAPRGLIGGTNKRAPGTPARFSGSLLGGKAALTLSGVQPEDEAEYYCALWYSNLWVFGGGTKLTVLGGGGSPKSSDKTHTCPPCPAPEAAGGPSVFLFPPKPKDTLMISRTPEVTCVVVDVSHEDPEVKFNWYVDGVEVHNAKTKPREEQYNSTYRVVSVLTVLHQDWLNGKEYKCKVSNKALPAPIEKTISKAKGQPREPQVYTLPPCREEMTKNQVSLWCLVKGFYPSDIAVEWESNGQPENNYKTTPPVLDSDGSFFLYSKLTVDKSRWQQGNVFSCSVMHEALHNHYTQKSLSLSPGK
heavy: B6 heavy
light: B6 light
B12: Cross318 (antibody, human IgG1, kappa, V domains shown)
VH: B1 VH with E108Y, Y114M
VL: B1 VL
B13: Cross303 (antibody, human IgG1, kappa, V domains shown)
VH: B1 VH with N103M, E108Y
VL: B1 VL

Target: T1, CD3 on CD8 T cells (Homo sapiens (Human), UniProt P07766 23-207)
T1 construct: Native CD3 complex on CD8 T cells among PBMCs; also called T cells (PBMCs gated with anti-human CD8 antibody)
T1 sequence (P07766 23-207 limits assumed): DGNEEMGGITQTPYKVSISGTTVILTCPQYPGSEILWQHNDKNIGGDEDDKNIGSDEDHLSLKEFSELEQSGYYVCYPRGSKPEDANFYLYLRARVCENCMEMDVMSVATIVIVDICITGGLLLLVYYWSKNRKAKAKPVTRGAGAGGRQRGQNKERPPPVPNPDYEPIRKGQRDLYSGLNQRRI
Experiment: flow cytometry, CD8 T cells in PBMCs, binding ratio % [panel A]
Description: PBMCs were diluted with PBS to 2×10⁶/mL and added to a 1.5 ml EP tube at a volume of 100 μL/tube, 10 μL/tube of goat serum was added thereto and incubated at 4° C. for 30 min for blocking. […] 1 mL of PBS was added to the EP tube, followed by centrifugation at 3500 rpm for 5 min at 4° C. The supernatant was discarded, and the cells were washed again with PBS. After centrifugation, the supernatant was discarded, and the cells were resuspended with 100 μl/tube PBS. 1 μl/tube Alexa-647-labeled goat anti-human secondary antibody (purchased from Jackson lab) and 0.5 μl/tube PerCP-Cy5.5-labeled anti-human CD8 antibody were added and incubated at 4° C. in the dark for 30 min. The cells were washed twice with PBS, and the supernatant was discarded after centrifugation. The cells were resuspended with […] of PBS and assayed using the flow cytometry.

B1 and B2 are the same in “EC50 (read off the curve)” value: roughly 0.3 µg/mL for the first, roughly 0.3 µg/mL for the second.

B3 and B4 are within 1.5-fold of each other in “EC50 (read off the curve)” value: roughly 0.3 µg/mL for the first, roughly 0.4 µg/mL for the second.

For B5, the “EC50 (read off the curve)” value was roughly 0.3 µg/mL.

Target: T2, PDL1 protein (UniProt Q9NZQ7 19-238)
T2 construct: Bought recombinant protein
T2 sequence (Q9NZQ7 19-238 limits assumed): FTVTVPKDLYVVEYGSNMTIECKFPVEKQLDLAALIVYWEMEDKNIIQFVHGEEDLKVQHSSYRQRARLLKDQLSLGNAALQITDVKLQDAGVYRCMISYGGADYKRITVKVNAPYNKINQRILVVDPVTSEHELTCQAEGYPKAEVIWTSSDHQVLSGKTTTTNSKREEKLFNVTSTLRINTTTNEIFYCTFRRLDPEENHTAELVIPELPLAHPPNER
Experiment: ELISA, coated PDL1 protein, OD450 [panel A]
Description: (3) PDL1 protein (purchased from Acro) was diluted to 2 μg/ml with PBS buffer, added to a 96-well plate at a volume of 100 μL/well, and placed at 4° C. overnight. The PBS buffer in the 96-well plate was aspirated, and the plate was washed 6 times with PBST (pH 7.2 PBS containing 0.10% Tween 20) buffer. Then, PBS/10% BSA was added at 200 μL/well and incubated at 37° C. for 2 h for blocking. The blocking solution was removed, and the plate was washed six times with PBST. Then, the to-be-tested bispecific antibodies serially diluted with PBST/0.05% BSA, Cross3×PDL1, Cross303×PDL1, Cross307×PDL1, Cross308×PDL1, Cross309×PDL1, Cross310×PDL1, Cross311×PDL1, Cross312×PDL1, Cross313×PDL1, Cross314×PDL1, Cross316×PDL1, Cross317×PDL1, Cross318×PDL1, Cross323×PDL1, Cross325×PDL1, Cross326×PDL1, and control IgG1LALA (purchased from Bio-Tech) were added at 100 μL/well, and incubated at 37° C. for 1 h. The reaction system was removed, and the plate was washed 6 times with PBST. Then, the cells were incubated at 37° C. for 1 h with HRP (horseradish peroxidase)-labeled anti-human secondary antibody (Fab specific) (purchased from Sigma) serially diluted with PBST/0.05% BSA at 100 μL/well. After the plate was washed six times with PBST, TMB (tetramethylbenzidine) was added at 80 μL/well and incubated at room temperature for 3 min. 4 M sulfuric acid was added at 80 μL/well to terminate the reaction. The absorbance was read at 450 nm using a microplate reader.

B6 and B7 are the same in “EC50 (read off the curve)” value: roughly 0.2 µg/mL for the first, roughly 0.2 µg/mL for the second.

B8 and B9 are the same in “EC50 (read off the curve)” value: roughly 0.2 µg/mL for the first, roughly 0.2 µg/mL for the second.

B10 and B11 are the same in “EC50 (read off the curve)” value: roughly 0.2 µg/mL for the first, roughly 0.2 µg/mL for the second.

Target: T3, PDL1 on A-375 melanoma cells, HCT-15 colorectal cancer cells and A549 lung cancer cells (UniProt Q9NZQ7 19-290, limits assumed)
T3 construct: whole, on cells
T3 sequence (Q9NZQ7 19-290 limits assumed): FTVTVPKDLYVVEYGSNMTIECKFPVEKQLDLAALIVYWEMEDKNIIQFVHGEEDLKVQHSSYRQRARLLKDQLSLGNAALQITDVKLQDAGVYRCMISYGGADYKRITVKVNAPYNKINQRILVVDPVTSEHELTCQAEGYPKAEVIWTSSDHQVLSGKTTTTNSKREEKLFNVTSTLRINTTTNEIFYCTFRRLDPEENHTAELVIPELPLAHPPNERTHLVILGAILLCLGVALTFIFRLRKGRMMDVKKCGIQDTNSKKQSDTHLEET
Experiment: flow cytometry, A549 cells, MFI [panel B]
Description: (2) The tumor cells were diluted to 2×10⁶/ml with PBS and added to a 1.5 ml EP tube at a volume of 100 μl/tube, and goat serum was added thereto at 10 μl/tube. The cells were blocked at 4° C. for 30 min. The serially diluted bispecific antibodies, Cross3×Trop2, Cross303×Trop2, Cross307×Trop2, Cross308×Trop2, Cross309×Trop2, Cross310×Trop2, Cross311×Trop2, Cross312×Trop2, Cross313×Trop2, Cross314×Trop2, Cross316×Trop2, Cross317×Trop2, Cross318×Trop2, Cross323×Trop2, Cross325×Trop2, Cross326×Trop2, and Cross3×PDL1, Cross303×PDL1, Cross307×PDL1, Cross308×PDL1, Cross309×PDL1, Cross310×PDL1, Cross311×PDL1, Cross312×PDL1, Cross313×PDL1, Cross314×PDL1, Cross316×PDL1, Cross317×PDL1, Cross318×PDL1, Cross323×PDL1, Cross325×PDL1, Cross326×PDL1, and control hIgG1LALA (purchased from Bio-Tech) were added and incubated at 4° C. for 30 min. 1 ml of PBS was added to the EP tube, followed by centrifugation at 3500 rpm for 5 min at 4° C. The supernatant was discarded, and the cells were washed again with PBS. After centrifugation, the supernatant was completely discarded, and the cells were resuspended with PBS at 100 μl/tube. Alexa-647-labeled goat anti-human IgG secondary antibody (purchased from Jackson lab) was added at 1 μl/tube and incubated at 4° C. in the dark for 30 min. The cells were washed twice with PBS, and the supernatant was completely discarded after centrifugation. The cells were resuspended with PBS at 200 μl/tube and assay was performed using the flow cytometry.

B6 and B7 are the same in “EC50 (read off the curve)” value: roughly 1 µg/mL for the first, roughly 1 µg/mL for the second.

B8 and B9 are the same in “EC50 (read off the curve)” value: roughly 1 µg/mL for the first, roughly 1 µg/mL for the second.

Going from B10 to B11, the “EC50 (read off the curve)” value falls from roughly 2 µg/mL to roughly 1 µg/mL (2-fold).

Target: T4, CD3E&D protein (UniProt P04234 22-105)
T4 construct: Purchased from Acro; also called CD3 E&D antigens; CD3E&D antigen protein
T4 sequence (chain, as listed by the source limits assumed, chain 1 of 2): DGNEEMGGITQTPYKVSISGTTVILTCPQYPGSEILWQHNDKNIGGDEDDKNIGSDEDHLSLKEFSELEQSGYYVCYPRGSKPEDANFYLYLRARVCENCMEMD
T4 sequence (P04234 22-105 limits assumed, chain 2 of 2): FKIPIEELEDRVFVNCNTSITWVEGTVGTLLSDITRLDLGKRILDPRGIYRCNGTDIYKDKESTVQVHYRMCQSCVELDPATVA
Experiment: ELISA, coated CD3E&D protein, OD450 [panel B]
Description: (§1) In this example, the binding properties of the parental antibody Cross3 and the CD3 affinity-reduced antibody (the production method and the amino acid sequences of the heavy and light chains were shown in Example 1) were detected by ELISA. The CD3E&D protein was coated onto a 96-well plate by the inventors, and the strength of the signal after the addition of the antibody was used to determine the binding properties of the antibody and CD3E&D.
(§2) CD3E&D protein (purchased from Acro) was diluted to 2 μg/ml with PBS buffer, added to a 96-well plate at a volume of 100 μL/well, and placed at 4° C. overnight. The PBS buffer in the 96-well plate was aspirated, and the plate was washed 6 times with PBST (pH 7.2 PBS containing 0.1% Tween 20) buffer. Then, 200 μL/well PBS/10% BSA was added and incubated at 37° C. for 2 h for blocking. The blocking solution was removed, and the plate was washed six times with PBST. Then, the to-be-tested antibodies serially diluted with PBST/0.05% BSA, Cross3, Cross303, Cross307, Cross308, Cross309, Cross310, Cross311, Cross312, Cross313, Cross314, Cross316, Cross317, Cross318, Cross323, Cross325, Cross326, and control IgG1 (purchased from Bio-Tech) were added at 100 μL/well, and incubated at 37° C. for 1 h. The reaction system was removed, and the plate was washed 6 times with PBST. Then, the cells were incubated at 37° C. for 1 h with HRP (horseradish peroxidase)-labeled anti-human secondary antibody (Fab specific) (purchased from Sigma) serially diluted with PBST/0.05% BSA at 100 μL/well. The plate was washed six times with PBST, TMB (tetramethylbenzidine) was added at 80 μL/well and incubated at room temperature for 3 min. 4 M sulfuric acid was added at 80 μL/well to terminate the reaction. The absorbance was read at 450 nm using a microplate reader.

B1 and B2 are the same in “EC50 (read off the curve)” value: roughly 0.03 µg/mL for the first, roughly 0.03 µg/mL for the second.

B3 and B4 are the same in “EC50 (read off the curve)” value: roughly 0.03 µg/mL for the first, roughly 0.03 µg/mL for the second.

B5 and B12 are the same in “EC50 (read off the curve)” value: roughly 0.03 µg/mL for the first, roughly 0.03 µg/mL for the second.

Target: T4, CD3E&D protein
Experiment: SPR (Biacore 8K), antibody on CM5 chip, CD3 E&D antigen as analyte
Design: Fold change: reference not given here
Description: In a Biacore 8K (Cytiva) system, the antibody was diluted to 10 μg/mL in HBS-EP running buffer and coupled to a CM5 chip (Cytiva) at a flow rate of 10 μL/min.

Going from B13 to B1, the Fold change rises from 12.7 to 27.6.

Going from B2 to B3, the Fold change falls from 21.2 to 11.6.

Compared with B4, B5 is lower in Fold change: 26.5 for the first, 20.8 for the second.

With B12 the Fold change was 20.1.

Going from B13 to B1, the Kd rises from 2.09 nM to 4.55 nM (2.2-fold). The first binds more tightly here.

Going from B2 to B3, the Kd falls from 3.5 nM to 1.92 nM (1.8-fold). The second binds more tightly here.

B4 and B5 are within 1.5-fold of each other in Kd: 4.37 nM for the first, 3.43 nM for the second.

Work on B12 yielded a Kd of 3.32 nM.

Compared with B13, B1 is 10-fold lower in koff: 0.0991 s⁻¹ for the first, 0.00959 s⁻¹ for the second.

Going from B2 to B3, the koff falls from 0.0107 s⁻¹ to 0.00567 s⁻¹ (1.9-fold).

First: B4
Second: B5
The koff of the first is 3.6-fold higher: 0.00887 s⁻¹ for the first, 0.00249 s⁻¹ for the second.

With B12 the koff was 0.0056 s⁻¹.

Compared with B13, B1 is 23-fold lower in kon: 4.75e+07 M⁻¹ s⁻¹ for the first, 2.11e+06 M⁻¹ s⁻¹ for the second.

B2 and B3 are within 1.5-fold of each other in kon: 3.05e+06 M⁻¹ s⁻¹ for the first, 2.96e+06 M⁻¹ s⁻¹ for the second.

Going from B4 to B5, the kon falls from 2.03e+06 M⁻¹ s⁻¹ to 728000 M⁻¹ s⁻¹ (2.8-fold).

B12 showed a kon of 1.69e+06 M⁻¹ s⁻¹.

Target: T4, CD3E&D protein
Experiment: ELISA, coated CD3E&D protein, OD450 [panel A]
Description: as §1, §2

B13 was tested, and the “EC50 (read off the curve)” value was roughly 0.03 µg/mL.

Reference: US20260125472A1 (HEFEI TG IMMUNOPHARMA, published 2026)
